assay: yeast display, Sf9 membrane polyspecificity reagent, FACS + sequencing; frameworks hold sequencing errors
How it was run: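 A synthetic nanobody library was expressed on Saccharomyces cerevisiae BJ5465 by galactose induction for 36–48 hours. The library was stained for 1 hour at 4 °C with 10% biotinylated, detergent-solubilized Sf9 membrane reagent and enriched with streptavidin microbeads before FACS. Low and high (top ~1%) gates were set on anti-HA fluorescence for expression and streptavidin fluorescence for reagent binding, and each polyreactivity label reflects the gate of origin.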

| Sequence | polyreactivity (PSR sort gate) |
| --- | --- |
| QVQLVESGGRLVQAGGSLRLSSAASGSTFVDYDMGWDRQAPGKERELVAAISGSGGRTYYADSVKGRFTISRDTAKNTVYLQLISVKPEDTAVYYCAAVNAGGELAYWGQGTQVTVSS | high polyreactivity |
| QVQLVESGGRLVQAGGSLRLSSAASGSTFYVYTMGWYRQAPGKEWELVAAISSGSSTNYADSVKGRFTISRDNAKNTVYLQMNSLQPEDTAVYYCAATRFSYVFPYRYDYWGQGTQVTVSS | low polyreactivity |
| QVQLVESGGRLVQAGGSLRRSCAASGSTFASNAMRWYRPAPGKERELVAAITSRDASTYYADSVKGRFTISRDNAKNTVYLQMNSLKPEDTAVYYCATDGYSPAAFDYWGQGTQVTVSS | low polyreactivity |
| QVQLVESGGRLVQAGGSRRLSCAASGSIFYRNAKRSYRQAPGKERELVAAISGRGGSTNYADSVKGRFTISRDNAKNTVYLQMNSLKPEDTAVYYCNRYGVSNILVRGGYWGQGTQVTVSS | high polyreactivity |
| QVQLVESGGRLVQAVGSLRLRCAAAGRTFPVYAMGWYRQAPGKERELVAAIRGRSVRKYYADSVKGRFTISRDYAKNTVYLQMNSLKPEDTAVYYCAAYYLNPGMDYWGQGTQVTVSS | high polyreactivity |
| QVQLVESGGRLVQAVGSLRLSCAASGFTSHKYAMGWYRQAPGKERELVAAITSSGGRTYYADSVKGRFTISRDNAKNTVYFQTNSLKPEDTAVYYCNKLGRVGDAREYWGQGTQVTVSS | high polyreactivity |
| QVQLVESGGRLVQSGGSLRLSCAASGSIFVWNAMGWYRQAPGKERELVAAISYDGGSTYYADSVKGRFTISRDNAKNTVYLQMNSLKPEDTAVYYCAFEYVYWLSWYFQYDYWGQGTQVTVSS | low polyreactivity |
| QVQLVESGGSLVQAGGSLRLSCAASGSTFTKYVMGWYRQAPGKERELVAAISQSGTRTYYADSVKGRFTISRDNAKNTVYLQMNSLKPEDTAVYYCNKPVRNGSYHNRYNYWGQGTQVTVSS | high polyreactivity |
| QVQLVESGGSLVQAGGSLRLSCAATGRIFGPYAMGWYRQAPGKERELVATITWSGVSTYYADSVKGRFTLSRDNAKNTVYLQMNSLKPEDTAVYFCAADPQVIYRGFYQRDYWGQGTQVTVSS | low polyreactivity |
| QVQLVESGGVLGQAGVSLRLSCAASGRIFDGNTMGWYIQAPGQEREFVAAISGGGSTYYADSVKGRFTISRDNAKNTVYLQMNSLKPEDTAVYYCAATTGPVPLKGDYWGQGTQVTVSS | low polyreactivity |
| QVQLVESGGVLVQAAGSLRLSCAASGSIFDVNAMGWNRQAPGKEREFVAAISDSGGSTYYADSVKGRFTISRDNGKNTVYLQMNSLKPEDTAVYYCNADWSWYNYYDFDYWGQGTQVTVSS | low polyreactivity |
| QVQLVESGGVLVQAGGCLRLSCAASGSILDLNAMGWYRQAPGKERELVAAISLSGGTTYYADSVKGRFTISRDNAKNTVYLQMYSLKPEDTAVYYCNAGYFRPRAGNYVFGVESDYWGQGTQVTVSS | high polyreactivity |
| QVQLVESGGVLVQAGGIIRLSCAASGFIFVRYAMGWYRQAPGTERELVASIRSVGRTNYADSVKGRFTISRDNAKNTVYLQMNSLKPEDTAVYYCAAGYGSRSRPRGGYWGQGTQVTVSS | high polyreactivity |
| QVQLVESGGVLVQAGGSIRLTCAASGFTFSHYAMGWYRQAPGKERELVAAIRYSRASTYYADSVKGRFTISRYNAKNTVYLQMISVKPEDTSVYYCARPWWWAHHYDYDYWGQGSQVTVSS | low polyreactivity |
| QVQLVESGGVLVQAGGSLPLSCAASGSTFRPNAMGWYRQAPGKERELVDGISLNGTTTYYADSVKGRFTISRDNEKNTVYIQMNSLKPVDTAVYYCSADYQFGSAAEPYVFFDPEMDYWGQGTQVTGSS | low polyreactivity |
| QVQLVESGGVLVQAGGSLRLICAASGRIFGYYAMGWYRQAPGKERELVAAISNGGSTHYADSVKGRFTISRDNAKNTVYLQMNSLKPEDTAVYFCAAKASRVDWGYGYWGQATQVTVSS | high polyreactivity |
| QVQLVESGGVLVQAGGSLRLSCAASGFIFAKYAMGWYRQAPGKERELVAAINGRGTSTYYADSVKGRFTISRDNAKNTVYLQMNSLKPEDTAVYYCAARLRSGYHGQYDREDYWGQGTQVTVSS | high polyreactivity |
| QVQLVESGGVLVQAGGSLRLSCAASGFTFWLYAMGWYRQAPGKERELVAAISSGGGSTYYADSVKGRFTNSRDNAKNTVYLQMNSLKPEDTAVYYCNRYYYYGYDWGQGTQVTVSS | high polyreactivity |
| QVQLVESGGVLVQAGGSLRLSCAASGIIFYRNAMGWYRQAPGKERELVAAITSSGGRTYYADSVKGRFTISRDNAKNTVYLQMNSLKPEDTAVYYCAATRLYWKIFYGDGDYWGQGTQVTVSS | high polyreactivity |
| QVQLVESGGVLVQAGGSLRLSCAASGITFSRNAMGWYRQAPGKEMELVAAITWNGGRTYYADSVKGRFTISRDNAKNTVYLPMNSLKPEATAVYYCAADYDYPDYYAPSWPGYNYWGQVTQVTVSS | low polyreactivity |
| QVQLVESGGVLVQAGGSLRLSCAASGLICVPYSMGWYRQAPGKERELVAAISWRGGITYYADSVKGRFTISRDNAKNNVYLQMNSLKPEDTAVYYCAADGPYTGDGALDYWGQGTQVTVSS | high polyreactivity |
| QVQLVESGGVLVQAGGSLRLSCAASGRTFIFYAMGWYRQAPRKERELVAAITYSGTSTYYADSVKGRFTISRDNAKNTVYLQMNSLKPEDTAVYYCAKDGQRDANYYWGQGTQVTVSS | low polyreactivity |

| Sequence | polyreactivity (PSR sort gate) |
| --- | --- |
| QVQLVESGGVLVQAGGSLRLSCAASGRTFPTYAMGCSRPAPGKERELVAAITSGGSTYYADTVKGRFTISRDKAKNTVYLQMTSLKPEDTAVYYCAAISTWGTKYDYWGQGTQVTVSS | high polyreactivity |
| QVQLVESGGVLVQAGGSLRLSCAASGRTFRYYVKGWYRRAPGKERELLASITSNGDSTYYADSVKGRFTISRDNAKNTVYLQMNSLKPEDTAVYYCAVRWRDYRGSYRGFEYWGQGTQVTVSS | high polyreactivity |
| QVQLVESGGVLVQAGGSLRLSCAASGRTLRPYAMGWYRQAPGKERELVAAMTGGVSTDYADSVKGRFTISRDNAKNTVYLQRNSLKPEDTAVYYGAVDDRWFNHISGRYYEYYYWGQGTQVTVSS | low polyreactivity |
| QVQLVESGGVLVQAGGSLRLSCAASGSIFKRNVMGWYRQAPGKERELVAAITWSGASTYYADSVKGRFTISRDNAKNTVYLQMNSLKPEDTAVYYCAARGPSRRRDGSDYWGQGTQVTVSS | high polyreactivity |
| QVQLVESGGVLVQAGGSLRLSCAASGSIFRTNVMGWYSQAPGKEREMVASISSDSSTNYADSVKGRFTISRDNEKNTVYLQMNSLKPEDTAVYYCAKDPVVTEHYYWGQGTQVTVSS | low polyreactivity |
| QVQLVESGGVLVQAGGSLRLSCAASGSIFVYYGMGWYRQAPGKEREFVAAIWTGGSTYYADSVKGRFTISRDNAKNTVYLQMNSLKPEDTAVYYCAADRRGSHYYRYKYGYWGQGTQVTVSS | high polyreactivity |
| QVQLVESGGVLVQAGGSLRLSCAASGSLFTRYAMGGYRQAPGKVRELVAAISKSGTTTYYADSVKGRFTISRDNAKNTVYLQMNSLIPEDTAVYYCAAVPIAGKMDYWGQGTQVTVSS | high polyreactivity |
| QVQLVESGGVLVQAGGSLRLTCAASGFTFSRNTMGWYRQAPGKERELVAAIDSTGGSTYYADSVKGRFTISRDNAKNTVYLQMNSLKPEDTAVYYCATVLPDGRVWYEGYYWGQGTQVTVSS | low polyreactivity |
| QVQLVESGGVLVQEGGSLRLSCAASVSIFSRNAMGSYRQAPGKERELVAAISYSGGSTYYADSVKGRLTISRDNAKNTVYLQMNSLKPEDTEVYYCAAYGHHFQGDYNYWGQGTQVTVSS | low polyreactivity |
| QVQLVESGGVLVQPRGSLRLICAASGSTLAGNAMGWYRQAPGKEREFVAAISWSGGRTYYADSVKGRFTISRDNAKMTVYLQMNRMKPEDTAVYYCAARRGQTRYQYYYWGQGTQVTVSS | high polyreactivity |
| QVQLVESGGVVVQAGGSLRLSCAASGFTIDYYAMGWYRQARGQERELVATINGASYTNYADSVKGRFTISRDNAKNTVYLQMNSLKPEDTAVYYCNARYYGPDFVLAYDYWGQGTQVTVSS | low polyreactivity |
| QVQLVESGLGLLQAGGSLRLSCAASGFIFRLYTMGRYREAPGKVRELVASISSAGSTNYADSVKGRFTISLDNAKNTVYLQMNSLKPDDTAVYDCDKYYGQFYPPTLGYWGQCTQVTVSS | low polyreactivity |
| QVQLVESGRALVQAGGSLRLSCAASGRICGIYSMGWNRQAPGKEREFVAAISDRSGSRTYYADSVKGRFTISRDNAKNTVYLQMNSLKPEDTAVYYCNARHQYQTLYPGGYYWGQGTQVTVSS | high polyreactivity |
| QVQLVESGRALVQAGGSLRLSCAASGSTSRIYALGWYRQAPWKERELVAALTRSGGSTYYADSVKGRFTISRDNAKNTVYLQMNSLKPEDTAVYYCAADYRSHSRYRYDKVDYWGQGTQVTVSS | high polyreactivity |
| QVQLVESGRALVQAGGSLRLSCASSVRIFVRNAMGWYRQAPGKESELVAAISARGGRTNYADSVKGRFTISRDNAKNTVYLQMNSLKPDDTAVYYCAAVGFRAAYLYDYWGQGTQVTVSS | high polyreactivity |
| QVQLVESGRGIVQAGGSLRISWAASGITLAGYVMGLYRQAPGKESELVADISSSGDSTYYADSVKGRFTMSRDNAKNTVYLQMNSLKPEDTAVYYCAAKCGRTGSFDYWGQGTQVTVSS | low polyreactivity |
| QVQLVESGRGIVQAGGSLRLSCAASGLTFSSNAMVWYRQAPGKEREMVAVITNGGSTNYADSVKGRFTISRDNAKNTVYLQMNSLKPEDTAVYYCAKDGGPAQDIGMDYWGQGTQVTVSS | low polyreactivity |
| QVQLVESGRGLFQAGGSLRLSCAASGFTFSLYAMGWYRQPPGKERELVAVISYRGGSTYYAYSVKGRFTISRDNAKNTVYLQMNSLKPEVTAVYYCARVVLHFSRYWWPVDYWGQGTQVTVSS | high polyreactivity |
| QVQLVESGRGLFQAGGSLRLSCAASGSTFSGYAMGWYRPAPGKERELVATITRRGGNTYYADSVKGRFTISRDNAKNTVYLQMNSLKPEDTAVYYCSKDGRVHSPYDYWGQGTQVTVSS | low polyreactivity |
| QVQLVESGRGLGQAGGSLRLSCAASVSTFDKYDKGRSRQAPGKEREFVAAISSTGASTYYADSVKGRFTISRDNAKNTVYLQMNSLKPEDTAVYYCAADVPVGYGDDYWGQGTQVTESS | low polyreactivity |
| QVQLVESGRGLVEAGGSLRLSCAASGFIFLPYAMVWYRQAPGKERELVAAITRGGRTYYADSVNRRFTISRDNAKNTVYLQMNSLKPEDTAVYDCAATTYLVWGYNYWGQGTQVTVSS | low polyreactivity |

— the nanobody polyreactivity screen of Harvey et al. (2022)
